Measured values: the DeepSol protein solubility set

Test: soluble on expression in E. coli; label from the status in PepcDB or PDB records

Sequence	soluble on expression in E. coli
MGSDKIHHHHHHMDHQIEDFLEHWLPLADDAWVLAVITQIQGSAYRKPGAMMLFHEFGQGVGMLSGGCLEADLRRHAQKAMQTKQVTCVTYDASDESDASYRLGCGGIVDIMLIPLLKENHDLGLIELVQAFRHGRSGFYQLPLVKAGTDARQYQAAFYPEALTPFPASDFVRTGVFTQEAGESLIIPLRPRFHLGIFGGGIDAKPIAAMADTLGWQVTVFDGRTAYARAADFPHAHIVKLTAGELTANHIAQLDCAVVMNHNLGLDAVALKVIQAHPLAYVALLGPAHRRDKVLGMAGLSTESFSGVFSAPAGLALGGELPSAVALSILAQCHGVLHGATLKHLDEIMR	not soluble
MGSDKIHHHHHHMDIGDKGEMLSLLKALVNIDSGSYYKEGVDRVGRMLTNAFKQIGFKVAIFKQERYGDHLLFTHPHAFDPKILLVAHMDTVFPVGTAAARPFQLIGTRAYGPGVIDMKGSLVACLYAIKALVGAQSPAVKQVAVLMTSDEEIGAPSGREIIEKIGVGKKAVLVMEPARKDGSLVTARRGGGRYTLNVTGRAAHSGVEPEKGRSAIEELAHKIMKLHALSDYKSGISVNVGVIEGGTAVNTVADRAKAKVDIRISRLEQAEPLDRDIRRICGTPDVDGTTIELKGGITRPPMERNAQTVALFQLIQQVASTIGLELTETATGGSSDASFTSALGIPTIDGMGPVGGFPHSEKEYLRVDTMQERTLLLAKVIERLSE	not soluble
MGSDKIHHHHHHMDILQTANERMEQLAALMNKDIKQKVSADQKVKVGVDLGTSSIVFVVLDEHDVPLFGAFEFADAVRDGLVVNYRESVEVVTRLKERAEKCLGITLTHASGAIPPGTVGNNKKVVANVIESAGMEALYTIDEPTAAAAVLGLQDGAVVDVGGGTTGISVFENGEVIYTADEPTGGTHMTLVLAGYYGVPVEKAEQNKREQKDSSEHFSVMRPVVEKMAEITRVHLEKSPSEPLYIVGGASAYSQFKDTFESYLKTPVFQPNYPQYVTPLGIAMSSGSENL	not soluble
MGSDKIHHHHHHMDISDIAANDYVEVDAEQRLGKVRSLFERENPKGVIVTEAGAYDGVITERQLIQSHIGDDTRVAAMVTDAPKVSRTEDVRETARMLVEGGTKIAPVFEAGSLWGVITEDAILDAVLANLDALDVRDIYTEHVVTVDEDDSMGRVINLLREHGISRLPVVDDAGLLSGIVTRYDIVDFVVRDTEKTTVGDRSGEIERLLDLPVSDEMTSPVKTASFDDSVRDAVDDMLAHDYSGVIVTPDDDERAVGGILTKTDVLRALSYTEEEHLDVQITNIDLLDTLSRQEVRERIENVVAKYGDMDVHHAHVRLSKHKEKLRGTPLIQSQIRLRTNKGQIAGTGEGYGADNSFHVALDKLERNVLELKGIEHDEEYEGQLLRKLNDL	not soluble
MGSDKIHHHHHHMDISGRDVETRLTLAREFMSGVDELPTVPDIVLRIAGKLNDPDVAIDEVADLLLQDQVLTARVVHLANSPLYSAARPISSIRDAVIYLGLDLLREAIFTCAIVDLFKTGKGPLNRSTLWAHSLGVARIAKLIAERTGFLNPVNVYVAGLLHDVGEVFINFFRGKEFSQVVTLVDEEKITFGQAEERLFGTSHCEVGFALAKRWSLNEFICDTILYHHDIEAVPYKQAAIVAMVAFADEYCTLRRLGFEGHKPVDSVRTLLENHPSWGVIRRSLGGSDFDEKLIVAELDSSIVEIRAAVDELFLL	not soluble
MGSDKIHHHHHHMDKAKLIDLIKTNPNALVYIPNPSDELKLLAVQKNGLALKHIEHPTPEMQELALANNSRAIQFIDNPTEEMMNKAIQDSWVNLEYLQHPSETIIKLAITQAGWAIKYVKHPSEELQLLAVRRHYDSIKFIKDPCPKAQEEAVRINYDALRYIDSPTPQAELLAIRNHESAIAFVKDLSKEKILQFLGVNFLVIKYVRNDITKAELEQVLKETLGQEDVDEKYVRDFLNSSTIHKNSGQMSLDKIMFIYHYGSRKAKKVAVDEKLKI	not soluble
MGSDKIHHHHHHMDKFLYIAMSGAKQGMNALAVSANNLANANTDGFKADMVQARSMQAFGEGLPTRVFSMMESPGSNFNGGPIKTTGRDLDIAVKGDGWLAVQAADGSEGYTRAGSLKIDSTGMLLNSSNRPVMGASGPIVLPIPVEKIEISANGIISVRPQGATAEVIEEVARIKLVNPGNENLMRGEDGLFRLIAGGNAPNDPGVQVESGAVEGSNVNSVHEMVAMIDIQRQYEMQVKMMKNAEEIDRASTSLMRIS	not soluble
MGSDKIHHHHHHMDKGKSVKSTEKSVGMPPKTPKTDNNAHVDNEFLILQVNDAVFPIGSYTHSFGLETYIQQKKVTNKESALEYLKANLSSQFLYTEMLSLKLTYESALQQDLKKILGVEEVIMLSTSPMELRLANQKLGNRFIKTLQAMNELDMGEFFNAYAQKTKDPTHATSYGVFAASLGIELKKALRHYLYAQTSNMVINCVKSVPLSQNDGQKILLSLQSPFNQLIEKTLELDESHLCTASVQNDIKAMQHESLYSRLYMS	not soluble
MGSDKIHHHHHHMDKIIGLGNALIDVLATLKDDTLLDELELPKGSMQLIDDAKLQQINTKFSQMKTHLATGGSAGNAILGLACLGAGTGFIGKVGNDHYGDFFRKNLQKNNIEDNLLTSEQLPSGVASTFISQDGERTFGTYLGAAASLKAEDLTLEMFKGYAYLFIEGYLVQDHEMILHAIELAKEAGLQICLDMASYNIVENDLEFFSLLINKYVDIVFANEEEAKAFTGEEPEEALRVIAKKCSIAIVKVGANGSYIRKGTEEIKVSAIPVEKVLDTTGAGDYFAAGFLYGLTCGYSLEKCAKIGSILSGNVIQVIGTTISPERWDEIKLNINKVLAE	not soluble
MGSDKIHHHHHHMDKLIAFLKDKKITEVECVISDMTGIARGKIAPVDKFVSEKGMRLPESVLLQTVTGDFIDDEVYYQLLDDADIDFVCVPDENAVFMLPWTVEATAQVIHDCYDRMGNPIELSPRNVLKKVLKLYEDKGWEPVIAPEMEFYLTKRSDDHDLPLKPPIGRSGRPEAGRQSFSIDAANEYDPLFEDMYDWCEIQGLDIDTLIHEDGPAQMEINFSHGNALSLADQVFIFKRTLKEAALKHDVCATFMAKPVTDEPGSAMHIHQSVLDIKTGKNIFTKDDGTQSKLFLSYIAGLQQYIPELLPLMAPSANSFRRFLPGTSAPVNLEWGVENRTCGLRIPESSPQNRRIENRIPGADANCYLAIAASLLCGYIGMVDDLKPSTPVTGKSNESRTNNENCLPLTLEEALVAMQSSDACIEYLGQSFTTGFVAVKQAELENFRRVVSSWEREFLLLTV	not soluble
MGSDKIHHHHHHMDKMKAITFFDLDGTLLDGTSQITPEITAAVAALKDNQILPLIATGRTLCEIQPIMKASGIDSAIVMNGQFIHYEGKTIYSDEFTTEECVSLHEHVKQRGHELAFYNERRIFCTGHTGTVKQAYDYIHSAVPEIDPTGYENDAVNMMLVLSQHGDDDEYYYERFPELTFYRNGPFSIDIVRKGVSKGSGVKNLFNTLGLNGIPTYAFGDGINDLALFEACDYGIAMGNAREELKEKATFISTKNTENGIVNGLKKFDLL	not soluble
MGSDKIHHHHHHMDLGAPIGAHGNQPETEAATQCEIVLQGPTCGFPSWTRHCNIDCIRDFQPFDRLMKQGQRKTKLEFHNDGRLLAAQGDDICGPDLAFYRVTLSLQQRFDRGVEILFTFHPGHACPGSVSMAMCPRLIFMRNTMNRLLSRAQRSGDRRHALGHSGAVPATLRPFLSLICFCLVAVWMATPLRAACSGLDLRESAAPGMWAEIEAEIALTPFARGLSWVATRGDRRLHIIGTMHLNDPRHDALVAHMAPAIQAADAVLLEVNRADKARLERTLAETPSLIFITEGPTLIDRLPPEEWDEIAERAGAAGIPPFMAAKMRPWFLSLSMSVPLCARAIEDVTDGLDMKLMTLAERAGVETLSLEDPLGLFQLFDATPIEEQIKELRSYIAMAGVGADDFYTMVESYFDGEVQAYVLLQLKQFLTSESDLSVAERQAQVDDLLEALLYQRNRDWIPVIEATAGNRLVIAVGAAHLPGEAGVLALLEAEGYQIEEALR	not soluble
MGSDKIHHHHHHMDNKFKNIPKRHLPQKLPFDYTSIYTDPQIIKLTTRANIAIGTYEGFLESIINPMLLISPLLSQEAVLSSKLEGTHATLKDLLNYEAGNKVDIERDELHEIINYRKALFYALENISTINNIDSKGLPLSNRIIKEMHKILLDNVRGSSKNPGNFKRSQNYIGSVSSISYTPVPAEKTPEYMSNLEQYIHYDDLDLLVQSAIIHAQFEMIHPFEDGNGRIGRLLIPLFLYYQELLSYPTFYMSSYFERDRSLYISHLSNISKDNNWKDWFEYYLEGVILSAEESTKKAQDILSLYNIMKEQVIPKLNSVSGIQLLDFIFSAPIFKAEQVSEHLKISKRTTYTLLNKLIDEGYLSTDNAQRNRTYYCPQLLSIVQ	not soluble
MGSDKIHHHHHHMDNNTLDEYRAVYLTAEDLRLAASILYNAYHDDPFFVDTLSSSDKFAYEQKLRAAIREELNTLWQQKQALIGLFDGAHLMGVACVVTQKVPLGEGRYWHWRLKMLLGTGWQSTQAMMKKESTILELLPSQRCGILQFIALAPNEQGKGLGHQLVQAVVSWCDEQPNLEGIGVFTTQEAHTHLFKQHDFVSLGELVIGSVTGQLLFYTGQQDE	not soluble
MGSDKIHHHHHHMDQEKTPLLDALKGYVEENVIPFHVPGHKQGRGNPELRKYIGSKVLKMDVNGMKELDYIGNPSGVIAEAQHLCAEAFGAEQAYFLVNGTSSGVQAMIMSACNPGNEIIIPRNAHKSTIGAIILSGAIPVYVQPQVNKVLGIATGVSAESIQKAIEEHPQAKAVFIINPSYYGIHSDLKSIVEISHQANMTVLADEAHGAHLYFHPEFSLNAIEAGADMSAVSLHKTGGAMTQSSVLLHQGDRISVDRVKQVLQLSYTSSASYILMLSIDVARKQLATRGQLLLNKTLALARQARQELNDIEDIYAFGKELIGSPGCADFDETKLGIHVRKLGLTGYQIERILRERYKIQIEFSDIYNALAIVSLGDRRENLRKLVAAFREIADERETKDASKWFNIPFCPEMIVTPRDAFYSPKRIVPLELSSGEISGEMIMAYPPGIPVICMGERITQEIIEYIQLLQVEGCELQGATDAGINHIKVLGSALPQASVSKSVSPSRSAYQEIPVYLSP	not soluble
MGSDKIHHHHHHMDRVLFLAMTGAKHEAWQQATTANNLANVNTNAFKADLAAYRALPVVGDGAPTRTYVVDNTIGFDASQGSLQHTGNPSDFALGTPGFFAVQGADGQEAYTRDGGYVLDATGLMRTHSGLLIMGDGGPITVPAGSQVQLGSDGSVMAVPQSGANRAPQLVGQIKMVNPGPKDVYKGEDKLFHVNGGGTLPASADVKLVPETLESSNVNSVEALVQMISHGRQYELNIKMMQTSQQNDQQAAQLLSMS	not soluble
MGSDKIHHHHHHMDSGMNEKTTAELEHLRGLIDGVDQQLLHLLRKRLDLVAQVGTVKHGAGLPIYAPQREAAMLAKRREEAKNMGIAPQLIEDILRRLMRESYLNEKDVGFKQVKKDLGSVVIVGGKGQLGGLFSQMLTLSGYQVNLLDKDDWQQADSLFADAGMVLVTVPIAITCELIREKLTQLPADCILADLTSIKTEPVKAMLEAHSGPVVGFHPMFGPDVGSLAKQVVVVCHGRSPEKYQWLLEQIAIWGARIVEAEPERHDSAMQLVQAMRHFSTFVYGLNLCKEEADIDTLLQFSSPIYRLELAMVGRLFAQSPELYADIIFAQQDSQHAIGDYLDNYREALELLKRGDRNEFIKQFQSVAKWFGDFAPQFQRESRIMLQSVNDMKTN	not soluble
MGSDKIHHHHHHMDSLSSILKSVRLQGSVYFNACFASPWGLDLDQNQRAYFHLIIRGACYLQLGDKKEQLQGGDIIILPHGTAHQLFDDPSSVRVNATGVVPGLIDGINPFEGVGHSQDIDILCGYFNFNNSTPSYFLNALPDVIHLTQEHRTHFSFLDNALSFITQETKMKNLGREILIDRVTELLFVQIMRVYININGNEENIFSALSDRTLSEALQLMHTESDKNWTVESLAKAIGMSRSRFSEHFHNYIGETPMRYLHTCRMEVAKQKIEETESTLNIISEEVGYASDSAFKKAFKKFFGNTPSTFRQKNDK	not soluble
